Test results: publication PMC4476238 (Journal of immunology (Baltimore, Md. : 1950), 2015)
Values belong to the binder of their own block, whether it stands above or below them.

Target: T1, Pep 4 (synthetic Phl p 1-derived peptide) (Phleum pratense (timothy grass))
T1 chain: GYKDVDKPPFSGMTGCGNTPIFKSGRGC
Assay: ELISA

- binding result: no binding
B1: ScFv 25VH/25VL (ScFv engineered from the V regions of the Phl p 1-specific IgE Fab clone 25) (scFv, V domains shown)
VH: LESGGGLVQPGGSLRLSCAASGFTFDDHAMHWVRQTPEKGLQWVSGISWNSGVVAYADSVKGRFSISRDNAKNSLYLQMNNLIPEDTAVYYCVRDFRAASPYFFDYWGQGTRVTVSS
VL: ELTQSPSSLSASVGDRVTITCRASQSIGNYLNWYQQKPGKAPNLLIYAASSLQSGVPSRFSGSGSGTDFTLTISSLQREDFATYYCQQSNRTPITFGQGTRLEIK

- binding result: no binding
B2: P1 IgG1 (complete human monoclonal IgG1 Ab with the V regions of IgE Fab clone 25) (antibody, V domains shown)
VH: B1 VH
VL: B1 VL
